# From patent US7375083B2, “Pharmaceutical compositions for prevention of overdose or abuse” (Shire LLC, priority 2003, dated 2008)
# Experiments:
# [1] = Oral pharmacokinetics in rats, plasma d-amphetamine by ELISA; conditions: for Percent AUC / Percent Cmax: Oral
# [2] = Oral bioavailability of hydrocodone conjugates in rats, LC/MS/MS; conditions: for AUC (ng/ml h) 0-8 h / Cmax: hydrocodone plus hydromorphone; for Percent HC (AUC) / Percent HC (Cmax): relative to hydrocodone bitartrate
# [3] = Intranasal bioavailability of hydrocodone conjugates in rats, LC/MS/MS; conditions: intranasal, 1 mg/kg dose
# [4] = Intravenous bioavailability of hydrocodone conjugates in rats, LC/MS/MS; conditions: intravenous, 1 mg/kg dose
# [5] = relative to amphetamine (first value where two are given)
# [6] = relative to amphetamine, second of two values printed in the cell
# [7] = relative to hydrocodone bitartrate
smiles,measurement,setting,value
"CC(Cc1ccccc1)NC(=O)C(N)Cc1ccccc1 (stereo not shown) [Phe-Amp, 2-amino-3-phenylpropanoic acid-(1-methyl-2-phenylethyl)-amide]",Bioequivalence with amphetamine,"[1]; rat, oral",bioequivalent with amphetamine
CC(Cc1ccccc1)NC(=O)C(N)CO (stereo not shown) [S-Amp],Percent AUC,[1]; [5],79%
same,Percent Cmax,[1]; [5],62%
same,Percent AUC,[1]; [6],55%
same,Percent Cmax,[1]; [6],75%
CC(Cc1ccccc1)NC(=O)C(N)Cc1cnc[nH]1 (stereo not shown) [H-Amp],Percent AUC,[1]; [5],16%
same,Percent Cmax,[1]; [5],21%
CC(Cc1ccccc1)NC(=O)CNC(=O)CN (stereo not shown) [GG-Amp],Percent AUC,[1]; [5],79%
same,Percent Cmax,[1]; [5],88%
CC(C)CC(N)C(=O)NC(C)Cc1ccccc1 [L-Amp],Percent AUC,[1]; [5],65%
same,Percent Cmax,[1]; [5],81%
"CC[C@H](C)[C@H](NC(=O)[C@H](Cc1ccc(O)cc1)NC(=O)[C@@H](N)Cc1ccc(O)cc1)C(=O)OC1=CC[C@H]2[C@H]3Cc4ccc(OC)c5c4[C@@]2(CCN3C)[C@H]1O5 [YYI-HC, Tyr-Tyr-Ile-Hydrocodone]",Percent Decrease 1 mg/kg vs. 5 mg/kg AUC,[2]; oral bioavailability,41%
same,Percent Decrease 1 mg/kg vs. 5 mg/kg Cmax,[2]; oral bioavailability,60%
same,hydrocodone plus hydromorphone concentration,"[2]; oral, 1 mg/kg dose, 0.5 Hours",9.2 ng/mL
same,hydrocodone plus hydromorphone concentration,"[2]; oral, 1 mg/kg dose, 1.5 Hours",4.3 ng/mL
same,hydrocodone plus hydromorphone concentration,"[2]; oral, 1 mg/kg dose, 3 Hours",1.5 ng/mL
same,hydrocodone plus hydromorphone concentration,"[2]; oral, 1 mg/kg dose, 5 Hours",1.1 ng/mL
same,hydrocodone plus hydromorphone concentration,"[2]; oral, 1 mg/kg dose, 8 Hours",1.8 ng/mL
same,AUC (ng/ml h) 0-8 h,"[2]; oral, 1 mg/kg dose",0.0204 µg·h/mL
same,Cmax,"[2]; oral, 1 mg/kg dose",0.0092 µg/mL
same,Percent HC (AUC),"[2]; oral, 1 mg/kg dose",78%
same,Percent HC (Cmax),"[2]; oral, 1 mg/kg dose",100%
same,hydrocodone plus hydromorphone concentration,"[2]; oral, 5 mg/kg dose, 0.5 Hours",15 ng/mL
same,hydrocodone plus hydromorphone concentration,"[2]; oral, 5 mg/kg dose, 1.5 Hours",6.3 ng/mL
same,hydrocodone plus hydromorphone concentration,"[2]; oral, 5 mg/kg dose, 3 Hours",3.3 ng/mL
same,hydrocodone plus hydromorphone concentration,"[2]; oral, 5 mg/kg dose, 5 Hours",1.6 ng/mL
same,hydrocodone plus hydromorphone concentration,"[2]; oral, 5 mg/kg dose, 8 Hours",2.7 ng/mL
same,AUC (ng/ml h) 0-8 h,"[2]; oral, 5 mg/kg dose",0.033 µg·h/mL
same,Cmax,"[2]; oral, 5 mg/kg dose",0.015 µg/mL
same,Percent HC (AUC),"[2]; oral, 5 mg/kg dose",46%
same,Percent HC (Cmax),"[2]; oral, 5 mg/kg dose",41%
same,Peak levels and bioavailability,"[2]; rat, oral, 5 mg/kg",substantially decreased
same,hydrocodone plus hydromorphone concentration,[3]; 5 Minutes,31 ng/mL
same,hydrocodone plus hydromorphone concentration,[3]; 15 Minutes,17 ng/mL
same,hydrocodone plus hydromorphone concentration,[3]; 30 Minutes,12 ng/mL
same,hydrocodone plus hydromorphone concentration,[3]; 60 Minutes,2 ng/mL
same,AUC (ng/ml h) 0-1 h,[3]; hydrocodone plus hydromorphone,0.012 µg·h/mL
same,Cmax,[3]; hydrocodone plus hydromorphone,0.031 µg/mL
same,Percent HC (AUC),[3]; [7],4%
same,Percent HC (Cmax),[3]; [7],6%
same,hydrocodone plus hydromorphone concentration,[4]; 5 Minutes,9 ng/mL
same,hydrocodone plus hydromorphone concentration,[4]; 15 Minutes,13 ng/mL
same,hydrocodone plus hydromorphone concentration,[4]; 30 Minutes,13 ng/mL
same,hydrocodone plus hydromorphone concentration,[4]; 60 Minutes,3 ng/mL
same,AUC (ng/ml h) 0-1 h,[4]; hydrocodone plus hydromorphone,0.01 µg·h/mL
same,Cmax,[4]; hydrocodone plus hydromorphone,0.013 µg/mL
same,Percent HC (AUC),[4]; [7],7%
same,Percent HC (Cmax),[4]; [7],6%
CC(Cc1ccccc1)NC(=O)CNC(=O)[C@@H](N)CCCCN (stereo partly shown) [KG-Amp],Percent AUC,[1]; [5],69%
same,Percent Cmax,[1]; [5],71%
CC(Cc1ccccc1)NC(=O)[C@H](CCC(=O)O)NC(=O)[C@@H](N)CCC(=O)O (stereo partly shown) [EE-Amp],Percent AUC,[1]; [5],26%
same,Percent Cmax,[1]; [5],74%
